According to paper PMC3821027:
Read-outs that look alike come from different tables or passages of the source.

Tests used:
[1] = system: rCTS (TRX-L1 ORF2p CTS, wild type) (Homo sapiens (LRE1 / L1.2 element, pSM42)); test: EMSA
[2] = system: rCTS (TRX-L1 ORF2p CTS, wild type) (Homo sapiens (LRE1 / L1.2 element, pSM42)); test: EMSA; remark: listed apart in the source

Substance: 380 nt L1 3'UTR RNA
- Kd [1]: 63 nM
- Kd [2]: 57 nM
